Measurements from patent publication US8410045B2, “Camptothecin-peptide conjugates and pharmaceutical compositions containing the same” (Drais Pharmaceuticals, Inc., priority 2006, dated 2013).
Like-named read-outs stand apart in the source and are kept apart here. Where a SMILES comes first, the peptide text is derived from it. Where no end group is shown, it is not given here. Side-chain parts run from the residue outwards. [ ]: non-standard residue; d: D form. The star is where a group is joined. ξ: configuration not given here. X9 = CCc1c2c(nc3ccc(OC(=O)[C@H]4CC[C@H](CNC(=O)CCOCCOCCOCCOCCNC(=O)CCN5C(=O)CC(*)C5=O)CC4)cc13)-c1cc3c(c(=O)n1C2)COC(=O)[C@]3(O)CC; X6 = CCc1c2c(nc3ccc(OC(=O)[C@H]4CC[C@H](CNC(=O)C5CCC(CN6C(=O)CC(*)C6=O)CC5)CC4)cc13)-c1cc3c(c(=O)n1C2)COC(=O)[C@]3(O)CC; X7 = CCc1c2c(nc3ccc(OC(=O)CCCCCCCCCCN4C(=O)CC(*)C4=O)cc13)-c1cc3c(c(=O)n1C2)COC(=O)[C@]3(O)CC; X5 = CCc1c2c(nc3ccc(OC(=O)CCN4C(=O)CC(*)C4=O)cc13)-c1cc3c(c(=O)n1C2)COC(=O)[C@]3(O)CC; X8 = CC[C@@]1(O)C(=O)OCc2c1cc1n(c2=O)Cc2cc3cc(OC(=O)CCN4C(=O)CC(*)C4=O)ccc3nc2-1; SN38 = active drug (irinotecan metabolite) conjugated via the linker; MIC = not defined here; ξC = NC(CS)C(=O)O

How the values were obtained:
[1] = Stability of conjugates in citrated plasma at 37° C. (half life time, HPLC fluorescence); type: in vitro ADME; settings: dog, read-out: Dog Plasma Half life time
Method: (§1) The stability of the conjugates was tested in citrated plasma (10% (v/v) sodium citrate buffer, 0.106M) from different species (see Table 1 below). The conjugates at 2.55 μM were incubated at 37° C. in plasma. Samples were analysed using the HPLC fluorescence method described below (see chromatographic equipment and conditions) following TFA/acetonitrile extraction and the amount of free camptothecin, analogs or derivatives thereof (e.g. SN38) released by the conjugates was measured.
(§2) Chromatographic equipment and conditions: 150 μL of each sample were placed in 1.5 mL micro-centrifuge tubes. 450 μL of 5% (v/v) TFA in H2O was added to each tube and the mixture was vortexed for 5 seconds. Samples were then centrifuged at 16000 g, 3 minutes at +4° C. 100 μL of supernatant were placed in 1.5 mL micro-centrifuge tubes. Methanol (100 μL) was then immediately added and vortexed for 5 seconds. Samples were then centrifuged at 16000 g, 3 minutes at room temperature. 150 μL of supernatant were recovered for HPLC analysis. Conjugates, metabolites and camptothecin derivative (i.e. SN38) were separated by high-performance liquid chromatography (HPLC; Agilent 1100 series equipped with a fluorescence detector) using a 4.6×100 mm ([…] particle size) Luna C18(2) column (Phenomenex ref. 00D-4251-E0, Le Pecq, France). The aqueous component of the mobile phase (A) was 0.1% (v/v) TFA in water. The organic modifier (B) was acetonitrile containing 0.1% (v/v) TFA. For the conjugate and its metabolites an elution gradient increasing linearly the proportion of B from 15 to 37% in 2 min, from 37 to 47% in 6 min, followed by 2 min at 90% was applied with a constant flow rate of 1.2 mL/min. The proportion of B was then returned to the initial condition for 3.0 min.
(§3) The half life time of conjugate corresponds to the time necessary to have 50% by mole of free camptothecin, analogs or derivatives thereof released by the conjugates of the invention. In human plasma, the half life time of conjugate DPV1047-linker #1-SN38 (less than 5 mins) was shorter than that of conjugate DPV1047-linker #2-SN38 (6-7 mins), which, in turn, was shorter than that of conjugate DPV1047-linker #3-SN38 (12 mins).
(§4) As in Example II, the stability of these conjugates was tested in either human or dog plasma. Following incubation at 37° C., samples were analyzed after a TFA acetonitrile extraction by the HPLC fluorescence method described in Example II. The in vitro cytotoxicity (IC50) of these compounds was also evaluated.

[2] = as above; type: in vitro ADME, human; settings: for half-life: human, plasma
Method: as §1, §2, §3, §4

[3] = test system: HCT 116 human colorectal carcinoma tumor
[4] = Table 10, SN38 conjugates, read-out: Human Plasma Half life time
[5] = Table 14, 10-Hydroxycamptothecin conjugates
[6] = Table 14, 10-Hydroxycamptothecin conjugates, read-out: Human Plasma Half life time
[7] = DPV1047-linker-SN38, 2.55 μM, citrated plasma
[8] = DPV1047-linker-SN38, 2.55 μM, citrated plasma, read-out: Half life time, Human plasma

Compound	half-life ([1]; Table 10, SN38 conjugates)	half-life [2, 4]	half-life [2, 8]	further results
CCc1c2c(nc3ccc(OC(=O)[C@H]4CC[C@H](CNC(=O)C5CCC(CN6C(=O)CC(SC[C@H](NC(=O)[C@@H]7CCCN7C(=O)[C@H](CC(=O)O)NC(=O)[C@H](CCCNC(=N)N)NC(=O)[C@H](CCCCN)NC(=O)[C@H](CCCCN)NC(=O)CNC(=O)[C@H](CC(C)C)NC(=O)[C@H](CCCCN)NC(=O)CNC(=O)[C@H](CCCCN)NC(=O)[C@H](CCCCN)NC(=O)[C@H](CCCCN)NC(=O)[C@H](CCCNC(=N)N)NC(=O)[C@H](CCCCN)NC(=O)CN)C(=O)O)C6=O)CC5)CC4)cc13)-c1cc3c(c(=O)n1C2)COC(=O)[C@]3(O)CC (stereo partly drawn) [DPV7-linker #5-SN38] (H-GKRKKKGKLGKKRDPC(X6)-OH; N-terminus and C-terminus assumed)	112 min	162 min		
CCc1c2c(nc3ccc(OC(=O)[C@H]4CC[C@H](CNC(=O)C5CCC(CN6C(=O)CC(SCC(N)C(=O)N[C@H](CCCCN)C(=O)N[C@H](CCCNC(=N)N)C(=O)NCC(=O)N[C@H](CC(C)C)C(=O)N[C@H](CCCCN)C(=O)N[C@H](CC(C)C)C(=O)N[C@H](CCCNC(=N)N)C(=O)N[C@H](Cc7c[nH]cn7)C(=O)O)C6=O)CC5)CC4)cc13)-c1cc3c(c(=O)n1C2)COC(=O)[C@]3(O)CC (stereo partly drawn) [DPV51(D)-linker #5-SN38] (H-[ξC](X6)[dK][dR]G[dL][dK][dL][dR][dH]-OH; N-terminus and C-terminus assumed)				half-life ([1]; Table 12, CPP-linker #5-SN38 conjugates incl. D conformation): 175 min; half-life ([2]; Table 12, CPP-linker #5-SN38 conjugates incl. D conformation, read-out: Human Plasma Half life time): 267 min
CC[C@@]1(O)C(=O)OCc2c1cc1n(c2=O)Cc2cc3cc(OC(=O)CCN4C(=O)CC(SC[C@H](N)C(=O)N[C@H](C(=O)N[C@@H](CCCCN)C(=O)N[C@@H](CCCNC(=N)N)C(=O)NCC(=O)N[C@@H](CC(C)C)C(=O)N[C@@H](CCCCN)C(=O)N[C@@H](CC(C)C)C(=O)N[C@@H](CCCNC(=N)N)C(=O)N[C@@H](Cc5c[nH]cn5)C(=O)N[C@H](C(=O)N[C@@H](CCCNC(=N)N)C(=O)N5CCC[C@H]5C(=O)N[C@@H](CCCNC(=N)N)C(=O)N[C@H](C(=O)N[C@H](C(=O)N[C@@H](CCCNC(=N)N)C(=O)N[C@@H](CCSC)C(=O)N[C@@H](CC(=O)O)C(=O)N[C@H](C(=O)O)C(C)C)[C@@H](C)O)C(C)C)C(C)C)C(C)C)C4=O)ccc3nc2-1 (stereo partly drawn) [DPV1047-linker #1-10 Hydroxycamptothecin] (H-C(X8)VKRGLKLRHVRPRVTRMDV-OH)				half-life [1, 5]: 3 min; half-life [2, 6]: < 3 min
CCc1c2c(nc3ccc(OC(=O)CCN4C(=O)CC(SC[C@H](N)C(=O)N[C@H](C(=O)N[C@@H](CCCCN)C(=O)N[C@@H](CCCNC(=N)N)C(=O)NCC(=O)N[C@@H](CC(C)C)C(=O)N[C@@H](CCCCN)C(=O)N[C@@H](CC(C)C)C(=O)N[C@@H](CCCNC(=N)N)C(=O)N[C@@H](Cc5c[nH]cn5)C(=O)N[C@H](C(=O)N[C@@H](CCCNC(=N)N)C(=O)N5CCC[C@H]5C(=O)N[C@@H](CCCNC(=N)N)C(=O)N[C@H](C(=O)N[C@H](C(=O)N[C@@H](CCCNC(=N)N)C(=O)N[C@@H](CCSC)C(=O)N[C@@H](CC(=O)O)C(=O)N[C@H](C(=O)O)C(C)C)[C@@H](C)O)C(C)C)C(C)C)C(C)C)C4=O)cc13)-c1cc3c(c(=O)n1C2)COC(=O)[C@]3(O)CC (stereo partly drawn) [DPV1047-linker #1-SN38] (H-C(X5)VKRGLKLRHVRPRVTRMDV-OH)	11.3 min	< 3 min	< 5 min	Half life time, Human plasma [2, 7]: <5 min
CCc1c2c(nc3ccc(OC(=O)CCCCCCCCCCN4C(=O)CC(SC[C@H](N)C(=O)N[C@H](C(=O)N[C@@H](CCCCN)C(=O)N[C@@H](CCCNC(=N)N)C(=O)NCC(=O)N[C@@H](CC(C)C)C(=O)N[C@@H](CCCCN)C(=O)N[C@@H](CC(C)C)C(=O)N[C@@H](CCCNC(=N)N)C(=O)N[C@@H](Cc5c[nH]cn5)C(=O)N[C@H](C(=O)N[C@@H](CCCNC(=N)N)C(=O)N5CCC[C@H]5C(=O)N[C@@H](CCCNC(=N)N)C(=O)N[C@H](C(=O)N[C@H](C(=O)N[C@@H](CCCNC(=N)N)C(=O)N[C@@H](CCSC)C(=O)N[C@@H](CC(=O)O)C(=O)N[C@H](C(=O)O)C(C)C)[C@@H](C)O)C(C)C)C(C)C)C(C)C)C4=O)cc13)-c1cc3c(c(=O)n1C2)COC(=O)[C@]3(O)CC (stereo partly drawn) [DPV1047-linker #3-SN38] (H-C(X7)VKRGLKLRHVRPRVTRMDV-OH)			12 min	Half life time, Human plasma [2, 7]: 8 to 9 min
CCc1c2c(nc3ccc(OC(=O)[C@H]4CC[C@H](CNC(=O)CCOCCOCCOCCOCCNC(=O)CCN5C(=O)CC(SC[C@H](N)C(=O)N[C@H](C(=O)N[C@@H](CCCCN)C(=O)N[C@@H](CCCNC(=N)N)C(=O)NCC(=O)N[C@@H](CC(C)C)C(=O)N[C@@H](CCCCN)C(=O)N[C@@H](CC(C)C)C(=O)N[C@@H](CCCNC(=N)N)C(=O)N[C@@H](Cc6c[nH]cn6)C(=O)N[C@H](C(=O)N[C@@H](CCCNC(=N)N)C(=O)N6CCC[C@H]6C(=O)N[C@@H](CCCNC(=N)N)C(=O)N[C@H](C(=O)N[C@H](C(=O)N[C@@H](CCCNC(=N)N)C(=O)N[C@@H](CCSC)C(=O)N[C@@H](CC(=O)O)C(=O)N[C@H](C(=O)O)C(C)C)[C@@H](C)O)C(C)C)C(C)C)C(C)C)C5=O)CC4)cc13)-c1cc3c(c(=O)n1C2)COC(=O)[C@]3(O)CC (stereo partly drawn) [DPV1047-linker #6-SN38] (H-C(X9)VKRGLKLRHVRPRVTRMDV-OH; N-terminus and C-terminus assumed)			30 min	
CCc1c2c(nc3ccc(OC(=O)CCN4C(=O)CC(SC[C@H](N)C(=O)N[C@@H](CCCNC(=N)N)C(=O)N[C@@H](CCC(N)=O)C(=O)N[C@H](C(=O)N[C@@H](CCCCN)C(=O)N[C@H](C(=O)N[C@@H](Cc5c[nH]c6ccccc56)C(=O)N[C@@H](Cc5ccccc5)C(=O)N[C@@H](CCC(N)=O)C(=O)N[C@@H](CC(N)=O)C(=O)N[C@@H](CCCNC(=N)N)C(=O)N[C@@H](CCCNC(=N)N)C(=O)N[C@@H](CCSC)C(=O)N[C@@H](CCCCN)C(=O)N[C@@H](Cc5c[nH]c6ccccc56)C(=O)N[C@@H](CCCCN)C(=O)N[C@@H](CCCCN)C(=O)O)[C@@H](C)CC)[C@@H](C)CC)C4=O)cc13)-c1cc3c(c(=O)n1C2)COC(=O)[C@]3(O)CC (stereo partly drawn) [Penetratin-linker #1-SN38]	16.5 min	< 3 min		
CC[C@@]1(O)C(=O)OCc2c1cc1n(c2=O)Cc2cc3cc(OC(=O)CCCCCNC(=O)C4CCC(CN5C(=O)CC(SC[C@H](NC(=O)[C@H](CCC(N)=O)NC(=O)[C@@H]6CCCN6C(=O)[C@@H]6CCCN6C(=O)[C@H](CCCNC(=N)N)NC(=O)[C@H](CCCNC(=N)N)NC(=O)[C@H](CCCNC(=N)N)NC(=O)[C@H](CCC(N)=O)NC(=O)[C@H](CCCNC(=N)N)NC(=O)[C@H](CCCNC(=N)N)NC(=O)[C@H](CCCCN)NC(=O)[C@H](CCCCN)NC(=O)[C@H](CCCNC(=N)N)NC(=O)CN)C(=O)O)C5=O)CC4)ccc3nc2-1 (stereo partly drawn) [Tat-linker #4-10 Hydroxycamptothecin]				half-life [1, 5]: 20 min; half-life [2, 6]: 7.3 min
CCc1c2c(nc3ccc(OC(=O)[C@H]4CC[C@H](CNC(=O)C5CCC(CN6C(=O)CC(SC[C@H](NC(=O)[C@H](CCC(N)=O)NC(=O)[C@@H]7CCCN7C(=O)[C@@H]7CCCN7C(=O)[C@H](CCCNC(=N)N)NC(=O)[C@H](CCCNC(=N)N)NC(=O)[C@H](CCCNC(=N)N)NC(=O)[C@H](CCC(N)=O)NC(=O)[C@H](CCCNC(=N)N)NC(=O)[C@H](CCCNC(=N)N)NC(=O)[C@H](CCCCN)NC(=O)[C@H](CCCCN)NC(=O)[C@H](CCCNC(=N)N)NC(=O)CN)C(=O)O)C6=O)CC5)CC4)cc13)-c1cc3c(c(=O)n1C2)COC(=O)[C@]3(O)CC (stereo partly drawn) [Tat-linker #5-SN38]	122 min	335 min		
PolyE(16)-MIC-SN38: non cell-penetrating PolyE(16) peptide coupled via MIC linker to SN38 (EEEEEEEEEEEEEEEEC([MIC-SN38]); not fully specified; reading uncertain; also: SN38 attached through MIC linker at Cys) [reference compound]				activity in the HCT 116 model ([3]; 40 μmol/kg, Q4D×3): not active; TGI (100-T/C %) ([3]; Table 5, Q4Dx3, DPV1047-BCH-SN38 30, PolyE(16)-MIC-SN38 40, irinotecan 48 μmol/kg): 30%
